Test [1] has as its target T1, binding of CFH to the HIV envelope peptides #SA2 (gp120), #18 and #12 (gp41) (Human immunodeficiency virus type 1 group M subtype B, UniProt P03377).
T1 construct: His Glu Asp Ile Ile Ser Leu Trp Asp Gln Ser Leu Lys Pro Cys, Env; 105-119; Ile Asn Asn Thr Tyr THr Ser, Env; 621-645; Leu Asp Lys Trp Ala Ser, Env; 650-673; made in house; host or cells: Env peptides: chemical synthesis; CFH: purified from normal human plasma (or fresh plasma used as the CFH source)
As to conditions: previous work, Pinter et al., AIDS Research & Human Retroviruses 11:577; cited from earlier work.

Test [2] concerns the target T1, binding of CFH to the HIV envelope peptides #SA2 (gp120), #18 and #12 (gp41). As to conditions: competitor added simultaneously with CFH; ELISA, solid-phase peptides #SA2, #18, #12.
The target is the same in test [3]. As to conditions: target peptides preincubated with competitor, washed, before CFH. The protocol: Synthetic peptides and recombinant proteins were dissolved in Carbonate-bicarbonate buffer, 50 mM, pH 9.2 at 50 μg/ml (micrograms per milliliter) and 10 μg/ml, respectively, distributed in 100 μl aliquots into flat-bottomed 96-well ELISA plates (Greiner, Germany) and left at 37° C. for 3 hours. The plates were then washed three times in phosphate-buffered saline (PBS) and the wells were overcoated with a 3% (w/v) solution of bovine serum albumin (BSA) in PBS. The CFH source (either from fresh plasma or from plasma subjected to subsequent purification steps), was diluted to the appropriate concentration (1 mg/ml) in PBS-BT (=PBS containing 1% BSA and 1% Tween 20), pH 7.0 and exposed to the solid phase for one hour at 37° C. After washing in PBS+1% Tween 20 (=PBS-T), bound CFH was detected by the use of specific, biotin-labelled MAb 5H5, Pinter et al., AIDS Research & Human Retroviruses 11: 971, and peroxidase-labelled streptavidin (Sigma, Italy). The reaction was developed with o-phenylene-diamine/H2 O2 for fifteen minutes and then stopped by the addition of 4N H2 SO4. Absorbance was detected at […] with a MT450 microplate reader (BioRad).
Along with the above-described assay, a preincubation assay was also conducted with peptides. […] The solid phases were washed in PBS-T and CFH was detected with the biotin-labelled MAb 5H5 as previously described.

The target of test [4] is T2, binding of peptide A to HIV-derived target peptides #SA2, #12, #18 (Human immunodeficiency virus type 1 group M subtype B, UniProt P03377).
T2 construct: His Glu Asp Ile Ile Ser Leu Trp Asp Gln Ser Leu Lys Pro Cys, Env; 105-119; Ile Asn Asn Thr Tyr THr Ser, Env; 621-645; Leu Asp Lys Trp Ala Ser, Env; 650-673; made in house; host or cells: chemical synthesis (synthetic peptides)
T2 sequence (P03377 621-645, other chains not shown): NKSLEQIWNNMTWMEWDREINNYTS
Kind of test: Competition of the binding of biotin-labelled peptide A to HIV-derived peptides. The text has this:
This interaction was competed by peptide A itself, by the envelope peptides #SA2 Sequence I.D. #20, #12 Sequence I.D. #22 and #18 Sequence I.D. #21 but not by peptide #53 Sequence I.D. […]. Therefore, the three HIV-derived peptides seem to share functional homology with respect to the interaction with CFH since they all bind to the same region on SEQ. ID NO: 1.

For the next test, the target named is CFH (Homo sapiens, UniProt P08603). The following applies: described in earlier publications of Pinter et al.; cited from earlier work.
Chain of CFH (P08603 19-1231): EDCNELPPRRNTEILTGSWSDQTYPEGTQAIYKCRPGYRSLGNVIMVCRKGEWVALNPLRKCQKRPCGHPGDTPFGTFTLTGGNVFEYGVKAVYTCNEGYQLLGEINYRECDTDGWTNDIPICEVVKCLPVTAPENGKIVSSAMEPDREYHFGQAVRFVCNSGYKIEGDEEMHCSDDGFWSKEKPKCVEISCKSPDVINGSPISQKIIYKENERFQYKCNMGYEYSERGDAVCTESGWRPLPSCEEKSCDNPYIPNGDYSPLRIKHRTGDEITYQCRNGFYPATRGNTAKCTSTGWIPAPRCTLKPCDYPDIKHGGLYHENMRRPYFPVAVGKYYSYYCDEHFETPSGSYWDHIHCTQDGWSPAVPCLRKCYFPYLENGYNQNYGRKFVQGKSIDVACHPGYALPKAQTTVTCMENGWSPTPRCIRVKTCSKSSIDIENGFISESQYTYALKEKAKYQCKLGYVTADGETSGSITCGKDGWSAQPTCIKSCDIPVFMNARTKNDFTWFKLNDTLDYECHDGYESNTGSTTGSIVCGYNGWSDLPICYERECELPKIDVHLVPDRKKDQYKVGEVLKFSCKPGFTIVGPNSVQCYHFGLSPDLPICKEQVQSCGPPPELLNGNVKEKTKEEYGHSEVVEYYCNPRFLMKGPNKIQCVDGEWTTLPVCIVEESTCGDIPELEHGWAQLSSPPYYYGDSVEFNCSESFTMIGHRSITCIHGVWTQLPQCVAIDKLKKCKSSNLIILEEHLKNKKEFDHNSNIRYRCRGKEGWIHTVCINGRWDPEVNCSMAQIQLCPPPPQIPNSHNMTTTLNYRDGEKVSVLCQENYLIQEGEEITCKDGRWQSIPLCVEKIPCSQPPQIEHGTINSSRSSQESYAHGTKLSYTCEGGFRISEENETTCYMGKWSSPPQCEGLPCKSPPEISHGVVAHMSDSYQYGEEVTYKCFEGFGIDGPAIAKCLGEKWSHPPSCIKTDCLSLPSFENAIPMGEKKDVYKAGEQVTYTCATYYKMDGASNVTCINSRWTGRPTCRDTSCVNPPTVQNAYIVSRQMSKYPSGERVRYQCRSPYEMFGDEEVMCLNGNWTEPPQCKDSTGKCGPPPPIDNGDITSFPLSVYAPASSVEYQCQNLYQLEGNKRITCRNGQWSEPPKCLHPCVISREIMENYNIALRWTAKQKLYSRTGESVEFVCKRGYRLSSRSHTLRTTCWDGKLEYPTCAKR
The target of test [5] is T3, gp41-derived peptide #18 (Env. 621-645) (Human Immunodeficiency Virus).
T3 peptide: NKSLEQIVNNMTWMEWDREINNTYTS
Description: competition ELISA against CFH; inhibition due to interaction of peptide A with the solid phase (preincubation gave the same effect).

Test [6] deals with T4, gp120-derived peptide #SA2 (Env. 105-119) (Human Immunodeficiency Virus).
T4 peptide: HEDIISLWDQSLKPC
The test is described as above.

Test [7] deals with T5, gp41-derived peptide #12 (Env. 650-673) (Human Immunodeficiency Virus).
T5 peptide: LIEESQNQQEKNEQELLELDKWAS
Described as above.

For test [8], the target named is T3, gp41-derived peptide #18 (Env. 621-645). Description: competition ELISA against CFH binding to the immobilised envelope peptide.
Test [9] concerns the target T4, gp120-derived peptide #SA2 (Env. …). The test is described as above.
Test [10] has as its target T5, gp41-derived peptide #12 (Env. 650-673). The test is described as above.

The values below come from patent US6319890A, “Inhibition of binding of complement Factor H” (priority 1996, dated 2001).

Heparin: the “inhibition of the binding of CFH to HIV and to the target peptides” value in test [1] was “inhibited”. For the same molecule, in test [2], the “competition with the binding of CFH to the HIV envelope peptides” value is on record as “competed”. In addition, the “competition with the binding of CFH to the HIV envelope peptides after preincubation” value in test [3] was “inactive”.

On to “Asn Lys Ser Leu Glu Gln Ile Val Asn Asn Met Thr Trp Met Glu Trp Asp Arg Glu Ile Asn Asn Thr Tyr THr Ser (NKSLEQIVNNMTWMEWDREINNTYTS) [#18, gp41-derived HIV envelope peptide, Env; 621-645]”, for which the “competition of the binding of biotin-labelled peptide A to HIV-derived peptides” value in test [4] is “competed”. In addition, the “CFH binding to the HIV envelope peptide” value with CFH is “targets of CFH binding”.

AIDKLKKCKSSNLIILEEHLKNKKEFDHNS [Peptide A]: the binding result in [5], in test [6] and in test [7] was “binds” each time.

On to IRYRCRGKEGWIHTVCINGRWDPEVNCS [Peptide B], for which the binding result in [8], in test [9] and in [10] was “no binding (tested: 0 to 50 µg/ml)” in each case.

Turning to KEFDHNSNIRYRCR [peptide b11], the binding result in test [8], in test [9] and in test [10] was “binds” in each case.
